± gives the standard deviation of the averaged measurements.
Assay: total protein half-life in vivo (active degradation + dilution); higher = more stable protein
[1] = E. coli NCM3722 delta-clpP delta-lon delta-hslV, growth: N-lim chemostat, doubling time 6 h
[2] = E. coli NCM3722 delta-clpP, growth: N-lim chemostat, doubling time 6 h
[3] = E. coli NCM3722 delta-hslV, growth: N-lim chemostat, doubling time 6 h
[4] = E. coli NCM3722 delta-lon, growth: N-lim chemostat, doubling time 6 h
[5] = E. coli NCM3722 delta-smpB, growth: N-lim chemostat, doubling time 6 h
[6] = wild type E. coli NCM3722, growth: C-lim chemostat, doubling time 6 h
[7] = wild type E. coli NCM3722, growth: C-lim chemostat, doubling time 12 h
[8] = wild type E. coli NCM3722, growth: N-lim chemostat, doubling time 6 h
[9] = wild type E. coli NCM3722, growth: N-lim chemostat, doubling time 12 h
[10] = wild type E. coli NCM3722, growth: P-lim chemostat, doubling time 6 h
[11] = wild type E. coli NCM3722, growth: P-lim chemostat, doubling time 12 h
[12] = wild type E. coli NCM3722, growth: C-lim chemostat, doubling time 3 h

| Sequence | total protein half-life in vivo [1] | total protein half-life in vivo [2] | total protein half-life in vivo [3] | total protein half-life in vivo [4] | total protein half-life in vivo [5] | total protein half-life in vivo [6] | total protein half-life in vivo [7] | total protein half-life in vivo [8] | total protein half-life in vivo [9] | total protein half-life in vivo [10] | total protein half-life in vivo [11] | total protein half-life in vivo [12] |
| --- | --- | --- | --- | --- | --- | --- | --- | --- | --- | --- | --- | --- |
| MPFRSNNPITRDELLSRFFPQYHPVTTFNSGLSGGSFLIEHQGQRFVVRQPHDPDAPQSAFLRQYRALSQLPACIAPKPHLYLRDWMVVDYLPGAVKTYLPDTNELAGLLYYLHQQPRFGWRITLLPLLELYWQQSDPARRTVGWLRMLKRLRKAREPRPLRLSPLHMDVHAGNLVHSASGLKLIDWEYAGDGDIALELAAVWVENTEQHRQLVNDYATRAKIYPAQLWRQVRRWFPWLLMLKAGWFEYRWRQTGDQQFIRLADDTWRQLLIKQ | 6.3 ± 0.21 h | 6.27 ± 0.31 h | 6.3 h | 6.04 ± 0.35 h | 5.66 h | 7.13 h | > 16 h | 6.24 ± 0.49 h | 13.6 h | 5.96 h | 11.1 h |  |
| MPKLILASTSPWRRALLEKLQISFECAAPEVDETPRSDESPRQLVLRLAQEKAQSLASRYPDHLIIGSDQVCVLDGEITGKPLTEENARLQLRKASGNIVTFYTGLALFNSANGHLQTEVEPFDVHFRHLSEAEIDNYVRKEHPLHCAGSFKSEGFGITLFERLEGRDPNTLVGLPLIALCQMLRREGKNPLMG [P0A729] | 4.57 ± 0.6 h |  | 4.118 ± 0.0072 h |  | 3.68 ± 0.16 h | 5.174 ± 0.02 h | 8.34 ± 0.7 h | 3.77 ± 0.35 h | 6.24 ± 0.41 h | 5.45 ± 0.28 h | 12.1 ± 0.56 h | 3.14 ± 0.5 h |
| MSHNVTPNTSRVELRKTLTLVPVVMMGLAYMQPMTLFDTFGIVSGLTDGHVPTAYAFALIAILFTALSYGKLVRRYPSAGSAYTYAQKSISPTVGFMVGWSSLLDYLFAPMINILLAKIYFEALVPSIPSWMFVVALVAFMTAFNLRSLKSVANFNTVIVVLQVVLIAVILGMVVYGVFEGEGAGTLASTRPFWSGDAHVIPMITGATILCFSFTGFDGISNLSEETKDAERVIPRAIFLTALIGGMIFIFATYFLQLYFPDISRFKDPDASQPEIMLYVAGKAFQVGALIFSTITVLASGMAAHAGVARLMYVMGRDGVFPKSFFGYVHPKWRTPAMNIILVGAIALLAINFDLVMATALINFGALVAFTFVNLSVISQFWIREKRNKTLKDHFQYLFLPMCGALTVGALWVNLEESSMVLGLIWAAIGLIYLACVTKSFRNPVPQYEDVA [P0AA47] |  |  |  |  |  |  |  |  |  |  |  | 0.699 ± 0.063 h |
| MENYLIDNLDRGILEALMGNARTAYAELAKQFGVSPGTIHVRVEKMKQAGIITGARIDVSPKQLGYDVGCFIGIILKSAKDYPSALAKLESLDEVTEAYYTTGHYSIFIKVMCRSIDALQHVLINKIQTIDEIQSTETLIVLQNPIMRTIKP [P0ACI6] |  | 5.95 h | 6.24 ± 1.1 h | 5.77 ± 0.21 h | 5.72 ± 0.49 h | 6.232 ± 0.029 h | 11.4 h | 5.85 ± 0.57 h | 11.6 ± 0.12 h | 6.94 ± 0.64 h | 13.2 ± 0.17 h | 3.51 ± 0.15 h |
| MQILLANPRGFCAGVDRAISIVENALAIYGAPIYVRHEVVHNRYVVDSLRERGAIFIEQISEVPDGAILIFSAHGVSQAVRNEAKSRDLTVFDATCPLVTKVHMEVARASRRGEESILIGHAGHPEVEGTMGQYSNPEGGMYLVESPDDVWKLTVKNEEKLSFMTQTTLSVDDTSDVIDALRKRFPKIVGPRKDDICYATTNRQEAVRALAEQAEVVLVVGSKNSSNSNRLAELAQRMGKRAFLIDDAKDIQEEWVKEVKCVGVTAGASAPDILVQNVVARLQQLGGGEAIPLEGREENIVFEVPKELRVDIREVD | 5.14 ± 0.44 h | 3.68 ± 0.91 h | 2.78 ± 0.23 h | 3.1 ± 0.29 h | 2.44 ± 0.24 h | 3.72 ± 0.34 h | 5.14 ± 0.29 h | 2.69 ± 0.3 h | 3.69 ± 0.062 h | 2.89 ± 0.034 h | 5.25 ± 0.3 h | 2.5 ± 0.044 h |
| MALLDFFLSRKKNTANIAKERLQIIVAERRRSDAEPHYLPQLRKDILEVICKYVQIDPEMVTVQLEQKDGDISILELNVTLPEAEELK [P0A734] | 5.76 ± 0.51 h | 4.57 ± 0.13 h |  | 3.791 ± 0.018 h | 4.06 ± 0.14 h | 4.59 ± 0.27 h | 6.36 ± 0.066 h | 3.626 ± 0.022 h | 6.22 ± 0.13 h | 4.14 ± 1.5 h | 8.17 ± 0.36 h | 2.736 ± 0.016 h |
| MRIIDNLEQFRQIYASGKKWQRCVEAIENIDNIQPGVAHSIGDSLTYRVETDSATDALFTGHRRYFEVHYYLQGQQKIEYAPKETLQVVEYYRDETDREYLKGCGETVEVHEGQIVICDIHEAYRFICNNAVKKVVLKVTIEDGYFHNK [P0AC73] |  |  |  |  |  | 6.04 ± 0.63 h | 9.85 h |  |  |  |  | 2.92 ± 0.37 h |
| MTETIKVSESLELHAVAENHVKPLYQLICKNKTWLQQSLNWPQFVQSEEDTRKTVQGNVMLHQRGYAKMFMIFKEDELIGVISFNRIEPLNKTAEIGYWLDESHQGQGIISQALQALIHHYAQSGELRRFVIKCRVDNPQSNQVALRNGFILEGCLKQAEFLNDAYDDVNLYARIIDSQ | 4.21 ± 0.68 h | 4.2 ± 0.35 h | 3.75 ± 0.27 h | 3.31 ± 0.19 h | 4.22 ± 0.22 h | 5.79 ± 0.19 h | 8.82 ± 2.3 h | 4.47 h | 6.48 ± 0.098 h | 5.61 ± 0.16 h | 13.7 ± 0.43 h | 3.18 ± 0.37 h |
